US20250000991A1, “NECTIN-4 ANTIBODIES AND ANTIBODY-DRUG CONJUGATES” (Eli Lilly and Company, priority 2023, published 2025)
Changes are numbered by the printed parent chain.

T1: human Nectin-4 (Homo sapiens, UniProt Q96NY8)
T1 construct: His tag; purchased Acro Biosystems NE4-H52H3
T1 sequence (Q96NY8 32-510): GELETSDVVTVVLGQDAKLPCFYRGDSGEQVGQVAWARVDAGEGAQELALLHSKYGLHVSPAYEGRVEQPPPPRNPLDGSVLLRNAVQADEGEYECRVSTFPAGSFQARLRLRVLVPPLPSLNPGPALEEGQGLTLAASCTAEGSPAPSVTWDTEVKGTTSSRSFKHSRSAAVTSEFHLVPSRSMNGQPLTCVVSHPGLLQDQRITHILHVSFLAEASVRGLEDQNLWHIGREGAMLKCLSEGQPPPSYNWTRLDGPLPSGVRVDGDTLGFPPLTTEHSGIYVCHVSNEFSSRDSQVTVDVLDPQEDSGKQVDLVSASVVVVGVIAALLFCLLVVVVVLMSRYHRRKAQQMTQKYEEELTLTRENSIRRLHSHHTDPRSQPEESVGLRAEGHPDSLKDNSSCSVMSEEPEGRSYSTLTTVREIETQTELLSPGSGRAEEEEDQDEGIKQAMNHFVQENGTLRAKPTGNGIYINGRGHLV

B1: Ab6 (conjugate)
heavy: QVQLVQSGAEVKKPGASVKVSCKASGYTFTGYYMHWVRQAPGQGLEWMGIINPSGGSTTYAQKFQGRVTMTRDTSTSTVYMELSSLRSEDTAVYYCARGRLGTYFDYWGQGTLVTVSSASTKGPSVFPLAPSSKSTSGGTAALGCLVKDYFPEPVTVSWNSGALTSGVHTFPAVLQSSGLYSLSSVVTVPSSSLGTQTYICNVNHKPSNTKVDKRVEPKSCDKTHTCPPCPAPEAAGGPSVFLFPPKPKDTLMISRTPEVTCVVVSVSHEDPEVKFNWYVDGVEVHNAKTKPREEQYNSTYRVVSVLTVLHQDWLNGKEYKCKVSNKALPAPIEKTISKAKGQPREPQVYTLPPSREEMTKNQVSLTCLVKGFYPSDIAVEWESNGQPENNYKTTPPVLDSDGSFFLYSKLTVDKSRWQQGNVFSCSVMHEALHNHYTQKSLSLSPGK
light: SYVLTQPPSVSVAPGQTARITCGGNNIGSKSVHWYQQKPGQAPVLVVYDDSDRPSGIPERFSGSNSGNTATLTISRVEAGDEADYYCQVWDRSSDQVVFGGGTKLTVLGQPKAAPSVTLFPPSSEELQANKATLVCLISDFYPGAVTVAWKADSSPVKAGVETTTPSKQSNNKYAASSYLSLTPEQWKSHRSYSCQVTHEGSTVEKTVAPTECS
B2: Ab3 (conjugate)
heavy: EVQLVESGGGLVKPGGSLRLSCAASGFNLNHYNMNWVRQAPGKGLEWVSSVSSGGGFRYYADSVRGRFTISRDNAKNSLYLQMNSLRAEDTAVYYCARGAVFHDAFDIWGQGTLVTVSSASTKGPSVFPLAPSSKSTSGGTAALGCLVKDYFPEPVTVSWNSGALTSGVHTFPAVLQSSGLYSLSSVVTVPSSSLGTQTYICNVNHKPSNTKVDKRVEPKSCDKTHTCPPCPAPEAAGGPSVFLFPPKPKDTLMISRTPEVTCVVVSVSHEDPEVKFNWYVDGVEVHNAKTKPREEQYNSTYRVVSVLTVLHQDWLNGKEYKCKVSNKALPAPIEKTISKAKGQPREPQVYTLPPSREEMTKNQVSLTCLVKGFYPSDIAVEWESNGQPENNYKTTPPVLDSDGSFFLYSKLTVDKSRWQQGNVFSCSVMHEALHNHYTQKSLSLSPGK
light: DIQLTQSPSFLSASVGDRVTITCRASQDISSYLAWYQQKPGKAPKLLIYVASTLQSGVPSRFSGSGSGTEFTLTISSLQPEDFATYYCQQINSYPFTFGQGTKVEIKRTVAAPSVFIFPPSDEQLKSGTASVVCLLNNFYPREAKVQWKVDNALQSGNSQESVTEQDSKDSTYSLSSTLTLSKADYEKHKVYACEVTHQGLSSPVTKSFNRGEC
B3: Ab4 (conjugate)
heavy: QVQLQESGPGLVKPSETLSLTCTVSGGSISGYYWSWIRQPPGKGLEWIGYIYYSGSTNYNPSLKSRVTISVDTSKNQFSLKLSSVTAADTAVYYCARLGIFFDAFDIWGQGTLVTVSSASTKGPSVFPLAPSSKSTSGGTAALGCLVKDYFPEPVTVSWNSGALTSGVHTFPAVLQSSGLYSLSSVVTVPSSSLGTQTYICNVNHKPSNTKVDKRVEPKSCDKTHTCPPCPAPEAAGGPSVFLFPPKPKDTLMISRTPEVTCVVVSVSHEDPEVKFNWYVDGVEVHNAKTKPREEQYNSTYRVVSVLTVLHQDWLNGKEYKCKVSNKALPAPIEKTISKAKGQPREPQVYTLPPSREEMTKNQVSLTCLVKGFYPSDIAVEWESNGQPENNYKTTPPVLDSDGSFFLYSKLTVDKSRWQQGNVFSCSVMHEALHNHYTQKSLSLSPGK
light: B2 light with D28G, V50A, I91F, F96W
B4: Ab5 (conjugate)
heavy: QVQLVQSGAEVKKPGASVKVSCKASGYTFTSYYVHWVRQAPGQGLEWMGIINPSIISTSYAQKFQARVTMTRDTSTSTVYMELSSLRSEDTAVYYCARGLNFDAFDIWGQGTLVTVSSASTKGPSVFPLAPSSKSTSGGTAALGCLVKDYFPEPVTVSWNSGALTSGVHTFPAVLQSSGLYSLSSVVTVPSSSLGTQTYICNVNHKPSNTKVDKRVEPKSCDKTHTCPPCPAPEAAGGPSVFLFPPKPKDTLMISRTPEVTCVVVSVSHEDPEVKFNWYVDGVEVHNAKTKPREEQYNSTYRVVSVLTVLHQDWLNGKEYKCKVSNKALPAPIEKTISKAKGQPREPQVYTLPPSREEMTKNQVSLTCLVKGFYPSDIAVEWESNGQPENNYKTTPPVLDSDGSFFLYSKLTVDKSRWQQGNVFSCSVMHEALHNHYTQKSLSLSPGK
light: B2 light with D28G, V50A, I91L, S93N

Experiments:
human Nectin-4 = molecular target: T1, human Nectin-4; test: Surface plasmon resonance (Biacore 8K+) binding of nectin-4 ADCs to human Nectin-4; conditions: human Nectin-4, 37° C., ADC Formula XI DAR 8; n=3 mean ± SD, n=2 replicate values
Experimental: (§1) An anti-human Fc sensor surface was prepared by amine-coupling of goat anti-human IgG Fc (Southern Biotech Cat. No. 2014-01, Birmingham, AL) to a Biacore Series S CM4 (Cytiva Cat. No. BR-100534) sensor surface at 25° C. For immobilization, a running buffer of 10 mM HEPES, 150 mM NaCl, 0.05% Tween-20, pH 7.4 was used. Flow cells 1 & 2 of all 8 channels were activated with a 1:1 (v/v) mixture of 400 mM 1-Ethyl-3-(3-dimethylaminopropyl) carbodiimide hydrochloride (EDC) and […] N-Hydroxysuccinimide (NHS) at a flow rate of 10 uL/min for 7 minutes. Then the anti-human IgG Fc capture reagent was coupled to the sensor surface (diluted to 50 μg/mL in 10 mM Acetate pH 4.5 buffer) by injecting it in all flow cells and channels at a flow rate of 10 uL/min for 7 minutes. Remaining active groups were blocked by injecting 100 mM ethylenediamine (in 200 mM Borate buffer, pH 8.5) in all flow cells and channels at a flow rate of 10 uL/min for 7 minutes. All channels and flow cells were then preconditioned using three consecutive 1-minute injections of 75 mM phosphoric acid at 10 uL/min.
(§2) In each analysis cycle, a different ADC was captured on flow cell 2 of each channel by injecting it at 5 μg/mL and 10 uL/min. After capture, the same analyte was injected on flow cells 1 and 2 in all 8 channels for 2 minutes at 30 uL/n and dissociation was monitored for 10 minutes. After dissociation, all surfaces were regenerated with three 1-minute injections of 5 mM phosphoric acid at 10 uL/min. ADC capture and analyte cycles were repeated to obtain analyte binding of each ADC at concentrations of 0, 2.5, 7.4, 22, 67, 200 and 600 nM nectin-4.
(§3) Sensorgram data were fit globally with the default 1:1 binding model in Biacore Insight Evaluation Software v3.0.12.15655.

cyno Nectin-4 = test: Surface plasmon resonance (Biacore 8K+) binding of nectin-4 ADCs to cyno Nectin-4; conditions: cyno Nectin-4, 37° C., ADC Formula XI DAR 8, n=1
Experimental: as §1, §2, §3

rat Nectin-4 = test: Surface plasmon resonance (Biacore 8K+) binding of nectin-4 ADCs to rat Nectin-4; conditions: rat Nectin-4, 37° C., ADC Formula XI DAR 8, n=1
Experimental: as §1, §2, §3

[1] = tested on: T24 mScarlet clone 5 Nectin-4 negative cells; test: Bystander killing of T24-mScarlet clone 5 cells co-cultured with T24-human nectin4 clone108 (imaging); type: cell-based; conditions: T24-mScarlet clone5 : T24-human nectin4 clone108 9:1, 5 days, ADC Formula XI DAR 8; read-out: IC50 of bystander effect
Experimental: T24 cell line was engineered to express mScarlet and clonally selected to test in bystander assay. T24-mScarlet clone5 and T24-human nectin4 clone108 were mixed and seeded at a total of 1000 cells/well/100 ul with a ratio of 9:1 in culture medium (McCoy's 5A+1× GlutaMax+10% Heat Inactivated Fetal Bovine Serum+400 μg/ml G418) in flat clear bottom 96-well plates. T24 mScarlet clone 5 cells were negative for nectin-4 expression. Plates were incubated at 37° C. with 5% CO2 overnight. Next day, ADCs were added at final working concentration from 50 nM, 1:4 serially diluted in culture medium. Plates were covered with Breathe-Easy® sealing membrane, placed in BioSpa and scanned in Cytation5 every day for 5 days.
Images of T24-mScarlet cells were captured and analyzed by Cytation5 with Gen5 Image Prime 3.11. Percentage of T24-mScarlet cell killing was calculated by decreased Integrated Intensity (area×mean intensity), normalized to zero hour and no treatment. Data was graphed and analyzed using GraphPad Prism version 9.5.1. IC50 was determined via log(inhibitor) vs. response-variable slope (four parameters) curve fitting.

| Molecule | ka (human Nectin-4) | kd (human Nectin-4) | KD (cyno Nectin-4; KD = kd/ka) | ka (rat Nectin-4) [M⁻¹ s⁻¹] | kd (rat Nectin-4) [s⁻¹] | IC50 [1] [nM] | ka (cyno Nectin-4) [M⁻¹ s⁻¹] | kd (cyno Nectin-4) [s⁻¹] | KD (rat Nectin-4; KD = kd/ka) |
| --- | --- | --- | --- | --- | --- | --- | --- | --- | --- |
| B1 | (1.78 ± 0.41) × 10^6 1/Ms | (1.63 ± 0.25) × 10^−1 1/s | heterogeneous kinetics* | 925000 | 0.105 | 0.0587 |  |  |  |
| B2 | (4.24 ± 0.76) × 10^5 1/Ms | (4.37 ± 1.56) × 10^−4 1/s |  | 171000 | 0.000903 | 0.047 | 432000 | 0.000426 |  |
| B3 | (3.59 ± 0.80) × 10^5 1/Ms | (7.32 ± 1.19) × 10^−2 1/s |  |  |  | 0.0798 | 380000 |  | weak binding |
| B4 | (8.78 ± 1.07) × 10^5 1/Ms | (3.46 ± 0.48) × 10^−3 1/s |  | 636000 | 0.0199 | 0.0766 | 1.06e+06 | 0.0033 |  |
